Reference: article PMC10197580 (bioRxiv, 2023)
Where two headings read alike, the source gives them in different places. Blank lines part the entries; values can stand above or below the binder they belong to.

Columns and labels:
[1] = molecular target: T1, TwinStrep-GFP-TPP1 OB+RD (aa 1–251) (human, UniProt Q96AP0 1-251); assay: cryo-EM structure
T1 sequence: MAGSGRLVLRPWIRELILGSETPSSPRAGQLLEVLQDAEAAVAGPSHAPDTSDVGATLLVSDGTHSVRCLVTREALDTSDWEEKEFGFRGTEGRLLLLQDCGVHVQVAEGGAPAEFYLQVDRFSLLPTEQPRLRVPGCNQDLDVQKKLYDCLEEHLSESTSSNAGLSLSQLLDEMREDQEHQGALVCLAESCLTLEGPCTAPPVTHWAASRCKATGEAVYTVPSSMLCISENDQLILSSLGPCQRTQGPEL

His6-MBP-Ctc1 [2] = molecular target: T2, His6-MBP-Ctc1 (human, UniProt Q2NKJ3 1-1217); assay: cryo-EM structure
T2 sequence: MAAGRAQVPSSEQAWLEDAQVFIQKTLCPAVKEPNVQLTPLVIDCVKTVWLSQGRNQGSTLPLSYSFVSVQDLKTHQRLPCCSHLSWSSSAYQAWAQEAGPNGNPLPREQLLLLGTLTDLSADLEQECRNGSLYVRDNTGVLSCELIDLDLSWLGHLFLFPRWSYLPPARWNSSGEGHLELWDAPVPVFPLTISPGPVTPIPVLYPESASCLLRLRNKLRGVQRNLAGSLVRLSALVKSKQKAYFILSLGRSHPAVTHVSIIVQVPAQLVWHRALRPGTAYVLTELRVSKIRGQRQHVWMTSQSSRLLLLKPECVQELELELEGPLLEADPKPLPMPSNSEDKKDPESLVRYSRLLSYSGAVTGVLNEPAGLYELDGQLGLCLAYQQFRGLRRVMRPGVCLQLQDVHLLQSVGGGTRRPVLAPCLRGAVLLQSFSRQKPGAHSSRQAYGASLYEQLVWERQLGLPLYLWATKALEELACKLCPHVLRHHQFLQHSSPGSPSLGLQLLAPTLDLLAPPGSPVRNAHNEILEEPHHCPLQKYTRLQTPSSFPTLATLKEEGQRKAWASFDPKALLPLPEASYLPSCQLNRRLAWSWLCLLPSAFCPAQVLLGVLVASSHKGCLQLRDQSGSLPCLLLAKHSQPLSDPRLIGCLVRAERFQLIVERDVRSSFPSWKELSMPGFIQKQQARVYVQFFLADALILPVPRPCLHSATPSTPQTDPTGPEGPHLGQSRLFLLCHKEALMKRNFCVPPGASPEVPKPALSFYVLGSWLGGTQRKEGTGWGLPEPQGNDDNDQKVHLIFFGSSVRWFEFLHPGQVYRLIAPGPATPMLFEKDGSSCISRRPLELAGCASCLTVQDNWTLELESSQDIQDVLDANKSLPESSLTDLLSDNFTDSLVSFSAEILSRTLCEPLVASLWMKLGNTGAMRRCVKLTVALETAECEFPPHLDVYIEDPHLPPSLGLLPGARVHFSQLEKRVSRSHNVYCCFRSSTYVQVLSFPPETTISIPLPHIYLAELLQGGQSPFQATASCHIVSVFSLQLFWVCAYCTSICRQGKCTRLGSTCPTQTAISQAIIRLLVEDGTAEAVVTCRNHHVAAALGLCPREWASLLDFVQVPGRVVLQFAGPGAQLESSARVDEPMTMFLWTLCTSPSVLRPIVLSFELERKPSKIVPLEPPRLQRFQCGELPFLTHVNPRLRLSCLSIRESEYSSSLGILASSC

His6-MBP-Ctc1 [3] = molecular target: T2, His6-MBP-Ctc1; assay: cryo-EM structure; remark: listed apart in the source
His6-MBP-Ctc1/Stn1/Ten1 [4] = molecular target: T3, His6-MBP-Ctc1/Stn1/Ten1 (human, UniProt Q2NKJ3;Q9H668;Q86WV5); assay: SEC
T3 sequence (Q86WV5 whole entry, one chain of several): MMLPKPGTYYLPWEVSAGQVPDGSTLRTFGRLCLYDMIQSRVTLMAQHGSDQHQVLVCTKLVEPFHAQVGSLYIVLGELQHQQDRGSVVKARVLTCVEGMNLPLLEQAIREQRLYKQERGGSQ

His6-MBP-Ctc1/Stn1/Ten1 [5] = molecular target: T3, His6-MBP-Ctc1/Stn1/Ten1; assay: cryo-EM structure
[6] = molecular target: CST with the His6-MBP tag cleaved (human, UniProt Q2NKJ3;Q9H668;Q86WV5); assay: negative-stain EM
Chain of CST with the His6-MBP tag cleaved (Q86WV5 whole entry, one chain of several): as above

B1: POT1(ESDL) (natural protein)
chain: MSLVPATNYIYTPLNQLKGGTIVNVYGVVKFFKPPYLSKGTDYCSVVTIVDQTNVKLTCLLFSGNYEALPIIYKNGDIVRFHRLKIQVYKKETQGITSSGFASLTFEGTLGAPIIPRTSSKYFNFTTEDHKMVEALRVWASTHMSPSWTLLKLCDVQPMQYFDLTCQLLGKAEVDGASFLLKVWDGTRTPFPSWRVLIQDLVLEGDLSHIHRLQNLTIDILVYDNHVHVARSLKVGSFLRIYSLHTKLQSMNSENQTMLSLEFHLHGGTSYGRGIRVLPESNSDVDQLKKDLESANLTANQHSDVICQSEPDDSFPSSGSESDLVSLYEVERCQQLSATILTDHQYLERTPLCAILKQKAPQQYRIRAKLRSYKPRRLFQSVKLHCPKCHLLQEVPHEGDLDIIFQDGATKTPDVKLQNTSLYDSKIWTTKNQKGRKVAVHFVKNNGILPLSNECLLLIEGGTLSEICKLSNKFNSVIPVRSGHEDLELLDLSAPFLIQGTIHHYGCKQCSSLRSIQNLNSLVDKTSWIPSSVAEALGIVPLQYVFVMTFTLDDGTGVLEAYLMDSDKFFQIPASEVLMDDDLQKSVDMIMDMFCPPGIKIDAYPWLECFIKSYNVTNGTDNQICYQIFDTTVAEDVI
modifications: phosphorylated in insect cells (sites not identified)
binding result [1]: binds
binding result (His6-MBP-Ctc1 [2]): binds

B2: Stn1 (natural protein)
chain: MQPGSSRCEEETPSLLWGLDPVFLAFAKLYIRDILDMKESRQVPGVFLYNGHPIKQVDVLGTVIGVRERDAFYSYGVDDSTGVINCICWKKLNTESVSAAPSAARELSLTSQLKKLQETIEQKTKIEIGDTIRVRGSIRTYREEREIHATTYYKVDDPVWNIQIARMLELPTIYRKVYDQPFHSSALEKEEALSNPGALDLPSLTSLLSEKAKEFLMENRVQSFYQQELEMVESLLSLANQPVIHSASSDQVNFKKDTTSKAIHSIFKNAIQLLQEKGLVFQKDDGFDNLYYVTREDKDLHRKIHRIIQQDCQKPNHMEKGCHFLHILACARLSIRPGLSEAVLQQVLELLEDQSDIVSTMEHYYTAF
binding result (His6-MBP-Ctc1 [3]): binds

B4: His6-POT1(ESDL)/TwinStrep-GFP-TPP1 (complex)
chain 1: B1 chain
chain 2: T1 sequence
modifications: phosphorylated in insect cells (sites not identified)
binding result (His6-MBP-Ctc1/Stn1/Ten1 [5]): binds
binding result [6]: binds

More lines, now with the values ahead:

binding result (His6-MBP-Ctc1/Stn1/Ten1 [4]): binds
B3: POT1(SED)/GFP-TPP1 (complex)
chain 1: MSLVPATNYIYTPLNQLKGGTIVNVYGVVKFFKPPYLSKGTDYCSVVTIVDQTNVKLTCLLFSGNYEALPIIYKNGDIVRFHRLKIQVYKKETQGITSSGFASLTFEGTLGAPIIPRTSSKYFNFTTEDHKMVEALRVWASTHMSPSWTLLKLCDVQPMQYFDLTCQLLGKAEVDGASFLLKVWDGTRTPFPSWRVLIQDLVLEGDLSHIHRLQNLTIDILVYDNHVHVARSLKVGSFLRIYSLHTKLQSMNSENQTMLSLEFHLHGGTSYGRGIRVLPESNSDVDQLKKDLESANLTANQHSDVICQSEPDDSSPESDSVSLYEVERCQQLSATILTDHQYLERTPLCAILKQKAPQQYRIRAKLRSYKPRRLFQSVKLHCPKCHLLQEVPHEGDLDIIFQDGATKTPDVKLQNTSLYDSKIWTTKNQKGRKVAVHFVKNNGILPLSNECLLLIEGGTLSEICKLSNKFNSVIPVRSGHEDLELLDLSAPFLIQGTIHHYGCKQCSSLRSIQNLNSLVDKTSWIPSSVAEALGIVPLQYVFVMTFTLDDGTGVLEAYLMDSDKFFQIPASEVLMDDDLQKSVDMIMDMFCPPGIKIDAYPWLECFIKSYNVTNGTDNQICYQIFDTTVAEDVI
chain 2: T1 sequence

binding result (His6-MBP-Ctc1/Stn1/Ten1 [4]): binds
B5: POT1(SED)/GFP-TPP1 treated with λ protein phosphatase (complex)
chain 1: B3 chain 1
chain 2: T1 sequence
modifications: dephosphorylated with λ protein phosphatase | dephosphorylated with λ protein phosphatase
